Results on 1 sequence are retold here after article PMC10899789.

Common to all, as to details: 50 mM Tris-HCl pH 7.5, 50 mM NaCl, 10 mM MgCl2; SV at 20 C, SE under same conditions (5000 rpm, 260 nm)
Series [1] concerns the target T1, p6CΔ20 del85-104 (Bacillus subtilis phage phi29) (UniProt P03685).
T1 sequence: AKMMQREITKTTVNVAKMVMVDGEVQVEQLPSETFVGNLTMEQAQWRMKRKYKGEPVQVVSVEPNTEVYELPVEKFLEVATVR
Kind of series: sedimentation velocity.

Series [2] has as its target T2, p6 wt (Bacillus subtilis phage phi29) (UniProt P03685).
T2 sequence: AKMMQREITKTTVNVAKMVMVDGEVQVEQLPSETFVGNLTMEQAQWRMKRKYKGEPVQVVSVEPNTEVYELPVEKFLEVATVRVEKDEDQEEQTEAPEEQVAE
Put plainly: sedimentation equilibrium.

Series [3] has as its target T1, p6CΔ20 del85-104 (Bacillus subtilis phage phi29). Put plainly: sedimentation equilibrium.

By Kd is commonly meant the equilibrium constant for the complex coming apart. With “GCCCACATACTTTGTTGATTGGTTGTCAATCATGGCAAAAGTGCACGCTACTTTGATAACCTTTTACATGCGACACAGACGAAGCGCTAAAACGTGGGATTCTGTGTCGTTTTATGTTGTTCATTGACAAACCTATCTAGTAGGTCTATAGATTGATATATTAAGTAGTAGTTTCCCTCCCTGATCATGGTATGCCGAGGATCGACGGATTATGTCGATATTAGGAGAATGGTATCATGTGAGGGTGGGGGCTTACTTT (double strand) [L fragment (DNA-L)]”, the binding entry in series [1] is listed as “binds”. In addition, the Kd in series [2] was 2460 nM; in series [3], 1470 nM.
